Measurements as given in PMC3561337.

T1: full length WT dynamin-1 (UniProt Q05193)
T1 sequence: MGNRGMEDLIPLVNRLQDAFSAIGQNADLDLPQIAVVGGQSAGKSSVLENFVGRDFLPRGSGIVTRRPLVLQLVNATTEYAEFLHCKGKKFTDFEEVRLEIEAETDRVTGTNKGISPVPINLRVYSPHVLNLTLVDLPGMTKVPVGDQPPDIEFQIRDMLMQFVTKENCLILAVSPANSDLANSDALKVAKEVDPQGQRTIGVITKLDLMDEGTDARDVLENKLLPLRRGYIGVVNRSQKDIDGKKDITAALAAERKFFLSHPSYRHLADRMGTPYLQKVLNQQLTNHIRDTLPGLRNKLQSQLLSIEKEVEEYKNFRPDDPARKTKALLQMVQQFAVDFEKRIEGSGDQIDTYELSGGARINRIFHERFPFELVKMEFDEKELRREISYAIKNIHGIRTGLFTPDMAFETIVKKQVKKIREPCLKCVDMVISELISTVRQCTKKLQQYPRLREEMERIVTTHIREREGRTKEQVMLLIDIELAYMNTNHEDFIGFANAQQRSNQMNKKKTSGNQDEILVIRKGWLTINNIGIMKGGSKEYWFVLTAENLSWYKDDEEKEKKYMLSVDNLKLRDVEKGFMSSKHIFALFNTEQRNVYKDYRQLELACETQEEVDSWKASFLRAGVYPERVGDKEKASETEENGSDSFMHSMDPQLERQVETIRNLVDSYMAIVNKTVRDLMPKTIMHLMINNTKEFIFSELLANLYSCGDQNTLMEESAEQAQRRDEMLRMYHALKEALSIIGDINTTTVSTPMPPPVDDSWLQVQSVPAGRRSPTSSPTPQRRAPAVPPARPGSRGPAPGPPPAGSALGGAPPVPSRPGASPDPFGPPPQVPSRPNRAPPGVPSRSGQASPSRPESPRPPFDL


Target: T1, full length WT dynamin-1

| inhibition of fission activity (vesicle release from SUPER templates) of 0.5 µM WT dynamin-1 by increasing S45N (∼50% at mutant:WT 0.5; value given at 1:1), 1 mM GTP, room temperature [%] | inhibition of fission activity (vesicle release from SUPER templates) of 0.5 µM WT dynamin-1 by increasing Q40E (∼50% at mutant:WT 0.5; value given at 1:1), 1 mM GTP, room temperature [%] | Binder |
| --- | --- | --- |
| 80 |  | full length S45N dynamin-1 (enzyme) MGNRGMEDLIPLVNRLQDAFSAIGQNADLDLPQIAVVGGQSAGKNSVLENFVGRDFLPRGSGIVTRRPLVLQLVNATTEYAEFLHCKGKKFTDFEEVRLEIEAETDRVTGTNKGISPVPINLRVYSPHVLNLTLVDLPGMTKVPVGDQPPDIEFQIRDMLMQFVTKENCLILAVSPANSDLANSDALKVAKEVDPQGQRTIGVITKLDLMDEGTDARDVLENKLLPLRRGYIGVVNRSQKDIDGKKDITAALAAERKFFLSHPSYRHLADRMGTPYLQKVLNQQLTNHIRDTLPGLRNKLQSQLLSIEKEVEEYKNFRPDDPARKTKALLQMVQQFAVDFEKRIEGSGDQIDTYELSGGARINRIFHERFPFELVKMEFDEKELRREISYAIKNIHGIRTGLFTPDMAFETIVKKQVKKIREPCLKCVDMVISELISTVRQCTKKLQQYPRLREEMERIVTTHIREREGRTKEQVMLLIDIELAYMNTNHEDFIGFANAQQRSNQMNKKKTSGNQDEILVIRKGWLTINNIGIMKGGSKEYWFVLTAENLSWYKDDEEKEKKYMLSVDNLKLRDVEKGFMSSKHIFALFNTEQRNVYKDYRQLELACETQEEVDSWKASFLRAGVYPERVGDKEKASETEENGSDSFMHSMDPQLERQVETIRNLVDSYMAIVNKTVRDLMPKTIMHLMINNTKEFIFSELLANLYSCGDQNTLMEESAEQAQRRDEMLRMYHALKEALSIIGDINTTTVSTPMPPPVDDSWLQVQSVPAGRRSPTSSPTPQRRAPAVPPARPGSRGPAPGPPPAGSALGGAPPVPSRPGASPDPFGPPPQVPSRPNRAPPGVPSRSGQASPSRPESPRPPFDL |
|  | 60 | full length Q40E dynamin-1 (enzyme) MGNRGMEDLIPLVNRLQDAFSAIGQNADLDLPQIAVVGGESAGKSSVLENFVGRDFLPRGSGIVTRRPLVLQLVNATTEYAEFLHCKGKKFTDFEEVRLEIEAETDRVTGTNKGISPVPINLRVYSPHVLNLTLVDLPGMTKVPVGDQPPDIEFQIRDMLMQFVTKENCLILAVSPANSDLANSDALKVAKEVDPQGQRTIGVITKLDLMDEGTDARDVLENKLLPLRRGYIGVVNRSQKDIDGKKDITAALAAERKFFLSHPSYRHLADRMGTPYLQKVLNQQLTNHIRDTLPGLRNKLQSQLLSIEKEVEEYKNFRPDDPARKTKALLQMVQQFAVDFEKRIEGSGDQIDTYELSGGARINRIFHERFPFELVKMEFDEKELRREISYAIKNIHGIRTGLFTPDMAFETIVKKQVKKIREPCLKCVDMVISELISTVRQCTKKLQQYPRLREEMERIVTTHIREREGRTKEQVMLLIDIELAYMNTNHEDFIGFANAQQRSNQMNKKKTSGNQDEILVIRKGWLTINNIGIMKGGSKEYWFVLTAENLSWYKDDEEKEKKYMLSVDNLKLRDVEKGFMSSKHIFALFNTEQRNVYKDYRQLELACETQEEVDSWKASFLRAGVYPERVGDKEKASETEENGSDSFMHSMDPQLERQVETIRNLVDSYMAIVNKTVRDLMPKTIMHLMINNTKEFIFSELLANLYSCGDQNTLMEESAEQAQRRDEMLRMYHALKEALSIIGDINTTTVSTPMPPPVDDSWLQVQSVPAGRRSPTSSPTPQRRAPAVPPARPGSRGPAPGPPPAGSALGGAPPVPSRPGASPDPFGPPPQVPSRPNRAPPGVPSRSGQASPSRPESPRPPFDL |
